# Data taken from paper PMC6616044, “Identification and characterization of a new sulfoacetaldehyde reductase from the human gut bacterium Bifidobacterium kashiwanohense” (Bioscience Reports, 2019).
# What was measured:
# BkTauF = biological target: T1, BkTauF (Bifidobacterium catenulatum, UniProt A0A0A7I0A5); experiment: X-ray crystal structure, […] Å; assay type: binding; conditions: binary complex; nucleotide site in cleft between N- and C-terminal domains
# T1 construct: gene AH68_00250; codon-optimized gene; His6-MBP-TEV-GGG fusion in E. coli BL21(DE3), tag cut by TEV protease, GGG linker before N-terminus; 375 residues seen, 41 kDa monomer, dimer; Zn2+ enzyme
# [1] = biological target: Bifidobacterium kashiwanohense TauF (sulfoacetaldehyde reductase) (Bifidobacterium kashiwanohense); experiment: SEC; Superdex200 gel filtration, 5 mg/ml BkTauF, 4 ml injected, buffer C (20 mM Tris pH 7.5, 200 mM KCl, 1 mM DTT), 2 ml/min; molecular weight from the elution volume against markers
# [2] = substrate: O=S(=O)(O)CCO; experiment: spectrophotometric NADH assay, A340; assay type: biochemical, Bifidobacterium catenulatum; conditions: isethionate oxidation; 1 mM NAD+, 50 mM CAPSO pH 10.0, room temperature; pH 10.0
# Excerpt: (§1) spectrophotometric NADH assay, A340 on BkTauF
# [3] = substrate: O=CCS(=O)(=O)O; experiment: spectrophotometric NADH assay, A340; assay type: biochemical, Bifidobacterium catenulatum; conditions: sulfoacetaldehyde introduced as bisulfite adduct; 0.5 mM NADH, 50 mM Tris/HCl pH 7.5, room temperature; pH 7.5
# Excerpt: as §1
# [4] = substrate: NC(=O)C1=CN([C@@H]2O[C@H](COP(=O)(O)OP(=O)(O)OC[C@H]3O[C@@H](n4cnc5c(N)ncnc54)[C@H](O)[C@@H]3O)[C@@H](O)[C@H]2O)C=CC1; experiment: spectrophotometric NADH assay, A340; assay type: biochemical, Bifidobacterium catenulatum; conditions: sulfoacetaldehyde reduction; 5 mM sulfoacetaldehyde, 50 mM Tris/HCl pH 7.5, room temperature; pH 7.5
# Excerpt: as §1
# [5] = substrate: NC(=O)c1ccc[n+]([C@@H]2O[C@H](COP(=O)(O)OP(=O)(O)OC[C@H]3O[C@@H](n4cnc5c(N)ncnc54)[C@H](O)[C@@H]3O)[C@@H](O)[C@H]2O)c1; experiment: spectrophotometric NADH formation, A340; assay type: biochemical, Bifidobacterium catenulatum; conditions: isethionate oxidation, 100 mM isethionate, 50 mM CAPSO pH 10.0, room temperature
# Excerpt: spectrophotometric NADH formation, A340 on BkTauF
# [6] = substrate: NC(=O)c1ccc[n+]([C@@H]2O[C@H](COP(=O)(O)OP(=O)(O)OC[C@H]3O[C@@H](n4cnc5c(N)ncnc54)[C@H](OP(=O)(O)O)[C@@H]3O)[C@@H](O)[C@H]2O)c1; experiment: spectrophotometric NADPH formation, A340; assay type: biochemical, Bifidobacterium catenulatum; conditions: isethionate oxidation, 100 mM isethionate, 50 mM CAPSO pH 10.0, room temperature
# Excerpt: spectrophotometric NADPH formation, A340 on BkTauF
# [7] = substrate: NC(=O)C1=CN([C@@H]2O[C@H](COP(=O)(O)OP(=O)(O)OC[C@H]3O[C@@H](n4cnc5c(N)ncnc54)[C@H](OP(=O)(O)O)[C@@H]3O)[C@@H](O)[C@H]2O)C=CC1; experiment: spectrophotometric NADPH assay, A340; assay type: biochemical, Bifidobacterium catenulatum; conditions: sulfoacetaldehyde reduction, 5 mM sulfoacetaldehyde, 50 mM Tris/HCl pH 7.5, room temperature
# Excerpt: spectrophotometric NADPH assay, A340 on BkTauF
molecule,measurement,setting,value
NC(=O)c1ccc[n+]([C@@H]2O[C@H](COP(=O)(O)OP(=O)(O)OC[C@H]3O[C@@H](n4cnc5c(N)ncnc54)[C@H](O)[C@@H]3O)[C@@H](O)[C@H]2O)c1 [NAD^+],"X-ray crystal structure, 3.0 Å",BkTauF,The electron density is well defined for NAD^+
Bifidobacterium kashiwanohense TauF (sulfoacetaldehyde reductase) (enzyme),stoichiometry N,[1],2
"BkTauF (Bifidobacterium catenulatum subsp. puerorum PV20-2) (protein, codon-optimized gene; His6-MBP-TEV-GGG fusion in E. coli BL21(DE3), tag cut by TEV protease, GGG linker before N-terminus; 375 residues seen, 41 kDa monomer, dimer; Zn2+ enzyme) MLWDYAQPVTIRFGKGRAMEIKDIAEAMGLHDGIMVTPKFFVDSGEAQRLIDASDGAVSTVFTDFSPNPDVTEVDACAEIIRKNHCEFVVAMGGGSAMDVSKAAASICLTDDSIADYHGTGKAMPQKHLPIIALPTTAGTGSEVTCVSVLTNRKLGKKAPIVSDGFFPSVAIVDPELTYSVPPKITASTGMDVLSQAIEGFWSKGHQPICDSCAAHAAKLVFKYLPIAVAEPHNEEAREKMCEASVIAGLAFTLPKTTSSHACSFPLTNIHGIPHGEACGLTLDYFARINKDAQHGRVQEFARGIGFKDVDAMADAIHDLKVRIGMRTGLKDLNLTEEQIADLVRISRHPNLYNNPVEITDDMLDTMYHYLASTD",Km,[2],4440 ± 590 µM
same,kcat,[2],0.97 ± 0.03 s⁻¹
same,kcat/Km,[2],218 M⁻¹ s⁻¹
same,Km,[3],500 ± 40 µM
same,kcat,[3],22.8 ± 0.68 s⁻¹
same,kcat/Km,[3],46100 M⁻¹ s⁻¹
same,Km,[4],60 ± 10 µM
same,kcat,[4],18.7 ± 0.52 s⁻¹
same,kcat/Km,[4],301000 M⁻¹ s⁻¹
same,Km,[5],80 ± 0 µM
same,kcat,[5],1.3 ± 0.02 s⁻¹
same,kcat/Km,[5],15800 M⁻¹ s⁻¹
same,Km,[6],770 ± 80 µM
same,kcat,[6],0.8 ± 0.02 s⁻¹
same,kcat/Km,[6],1030 M⁻¹ s⁻¹
same,Km,[7],730 ± 80 µM
same,kcat,[7],19 ± 1.13 s⁻¹
same,kcat/Km,[7],26200 M⁻¹ s⁻¹
